Measurements taken from US20180236053A1 (published 2018).

Molecular target: CD38 antigen on the surface of cells (U266 CD38+, MOLP8, Daudi, T-ALL cell lines, activated T cells) (human, UniProt P28907 1-300)

B1: 29B4 scFv (tested as anti-CD38 CARs, versions V1, V2 and V3) (scFv)
scFv: EVQLVESGGGLVKPGGSLKLSCAASGFTFSDYFMYWVRQTPEKRLEWVAIISDGGIYTYYPDSVKGRFTISRDNAKNNLYLQMSSLKSEDTAMYYCARDGRDDYDGWYFDVWGAGTTVTVSSGGGGSGGGGSGGGGSDIVMTQSHKFMSTSVGDRVNITCKASQDVNTAVAWYQQKPGQSPKLLIYWASTRHAGVPDRFTGSGSGTDYALTISSVQAEDLALYYCQQHYSTPRTFGGGTKLEIK
B1 was tested. Which Kd did it give?
Its Kd is 0.52 nM.

B2: GMB005 scFv (tested as anti-CD38 tool CARs, versions V1, V2 and V3) (scFv)
scFv: EVQLLESGGGLVQPGGSLRLSCAVSGFTFNSFAMSWVRQAPGKGLEWVSAISGSGGGTYYADSVKGRFTISRDNSKNTLYLQMNSLRAEDTAVYFCAKDKILWFGEPVFDYWGQGTLVTVSSASGGGGSGGGGSGGGGSEIVLTQSPATLSLSPGERATLSCRASQSVSSYLAWYQQKPGQAPRLLIYDASNRATGIPARFSGSGSGTDFTLTISSLEPEDFAVYYCQQRSNWPPTFGQGTKVEIK
How did the Kd turn out when B2 was run?
Its Kd is 119 nM.

B3: 25A10 scFv (tested as anti-CD38 CARs, versions V1, V2 and V3) (scFv)
scFv: EVQLQQSGAELVRPGASVKLSCTASGFNIKDSLIHWVKQRPEQGLEWIGWIDPEDDKTKYAPKFQDKATLTADTSSNTAYLQLSTLTSEDTAIYYCVSRYINYYFAYWGQGTTLTVSSGGGGSGGGGSGGGGSDIVMTQSPSSLTVTAGEKVTMSCKSSQSLLHSGNQRNYLTWYQQKPGQPPKLLIYWASTRESGVPDRFTGSGSGTDFTLTISSVQAEDLAVYYCQNDYDYPYTFGGGTKLEIK
How did the Kd turn out when B3 was run?
Its Kd is 0.25 nM.

B4: 13F11 scFv (tested as anti-CD38 CARs, versions V1, V2 and V3) (scFv)
scFv: QIQLVQSGPELKKPGETVKISCKASGYTFKKYGMNWVKQAPGKGLKWMGWINTNTGEPTYAEEFKGRFAFSLETSASTAYLQINNLKNEDTATYFCARWYYGSTPSSYTMDYWGQGTSVTVSSGGGGSGGGGSGGGGSETTVTQSPASLSVATGEKVTIRCITSTDIDDDMNWYQQKPGEPPKVLISEGNTLRPGVPSRFSSSGYGTDFVFTIENTLSEDVADYYCLQSNNMPYTFGGGTKLEIK
For B4, which Kd is on record?
The Kd was 0.8 nM.

B5: 27B6 scFv (tested as anti-CD38 CARs, versions V1, V2 and V3) (scFv)
scFv: QVQLKQSGPGLVQPSQSLSITCTVSGFSLTSYNIDWVRQSPGKGLEWLGVIWSGGSTDYNAAFISRLKISKDDSKSQVFFKMNSLQSDDTAIYYCARHSPLVSTPDWYFDVWGAGTTVTVSSGGGGSGGGGSGGGGSQIVLTQSPAIMSASPGEKVTMTCSTSSSVSYMHWYQQKSGTSPKRWIYDTSKLASGVPARFSGSGSGTSYSLTINNMEAEDAATYSCQQWSSYPPTFGGGTKLEIK
Which Kd does the source give for B5 here?
Its Kd is 2.2 nM.

B6: 10F7 scFv (tested as anti-CD38 CARs, versions V1, V2 and V3) (scFv)
scFv: QAYLQQSGAELVRSGASVKMSCKASGYTFTSYNMHWVKQTPGQGLEWIGYIYPGNGGTNYNQKFKDKATLTADTSSSTAYMQISSLTSEDSAVYFCARGGQLGRPWFAYWGQGTLVTVSAGGGGSGGGGSGGGGSNIVLTQSPASLAASPGQRATISCRASESVDSYGNTFMYWYQQKPGQPPKLLIYLASNLESGVPVRFSGSGSRTDFTLTIDPVEADDAATYYCQQNNEDPWTFGGGTKVEIK
How did the Kd turn out when B6 was run?
The Kd was 30 nM.

B7: 16B5 scFv (tested as anti-CD38 CARs, versions V1, V2 and V3) (scFv)
scFv: QAYLQQSGAELVRSGASVKMSCKASGYTFTSYNLHWVKQTPGQGLEWIGYIYPGNGGTNYNQKFKGKATLTADTSSSTAYMQISSLTSEDSAVYFCARGGIYYYGSSLDYWGQGTTLTVSSGGGGSGGGGSGGGGSNIVLTQSPASLAVSLGQRATISCRASESVDNYGTTFMYWYQQKPGQPPKLLIYLASNLESGVPARFSGSGSGTDFTLTIDPVEADDAATYYCQQNKEDPWTFGGGTKLEIK
With B7 as the binder, how does the Kd read?
Its Kd is 3.2 nM.
